Consider two substances from paper PMC4771738.

One assay has as its target GFP-dynactin 6 (UniProt O00399). The experiment in a line: co-IP; HEK 293 cells co-transfected with myc-tagged Rab and GFP fusion; lysis in 50 mM Tris pH 7.4, 150 mM NaCl, 1% Triton X-100; GFP fusions precipitated on GBP agarose beads, room temperature 1.5 h; blot for myc and GFP; co-IP efficiency = co-IP / input.
A further assay addresses GFP-syntaxin 8 (UniProt Q9UNK0). The assay is described as above.
Chain of UniProt Q9UNK0 (Q9UNK0 whole entry): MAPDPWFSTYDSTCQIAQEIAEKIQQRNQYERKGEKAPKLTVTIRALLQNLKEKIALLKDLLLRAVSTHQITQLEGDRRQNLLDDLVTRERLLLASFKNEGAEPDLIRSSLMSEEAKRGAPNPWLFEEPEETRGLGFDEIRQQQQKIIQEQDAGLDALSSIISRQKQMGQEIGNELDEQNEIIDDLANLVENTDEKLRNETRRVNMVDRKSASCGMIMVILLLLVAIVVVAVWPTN

Chain of UniProt O00399 (O00399 whole entry, the tested form may be a part): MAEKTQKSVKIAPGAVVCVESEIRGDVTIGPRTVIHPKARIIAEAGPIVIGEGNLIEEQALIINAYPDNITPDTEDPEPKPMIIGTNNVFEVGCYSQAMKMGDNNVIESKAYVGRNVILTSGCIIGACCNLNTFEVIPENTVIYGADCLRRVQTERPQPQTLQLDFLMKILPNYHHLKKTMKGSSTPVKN

Take “myc-tagged GDP-locked Rab41/6d (from UniProt Q5JT25 1-222) (natural protein)”: the values for the co-IP efficiency (co-IP divided by input) with GFP-dynactin 6 and with GFP-syntaxin 8 were 2% and 1.9%, respectively.
The matching figures for “myc-tagged GTP-locked Rab41/6d (from UniProt Q5JT25 1-222) (natural protein)”: 2.7% and 3.3%.
